SMILES strings stand for the structures.

Results on two molecules are retold here after US20080081025A1, “Uv Absorbing Chromophores Covalently Bonded to Hyperbranched Polymers” (DSM IP ASSETS B.V., priority 2004, published 2008).

Data set [1] in a line: In vitro SPF on PMMA plates using the SPF-290S Analyzer System. The note with it: sunscreen containing 5% UV filter; 1.4 mg sunscreen per cm^2 on PMMA plates; triplicate.
The nature of data set [2]: Solubility in Tegosoft TN (C12-C15 alkylbenzoate). Type of data set: physicochemical. On the procedure:
(§1) Cesium carbonate (16 g, 50 mmol) and potassium iodate (50 mg) were added to a solution of 4-(1,3-benzoxazol-2-yl)-phenol I (8.9 g, 42 mmol) (prepared according to Passerini, J. Chem. Soc. 1954, 2256-2257) in NMP (N-methylpyrolidon) (100 mL) and the mixture stirred under Argon at 80° C. for 20 min. A solution of mesylated poly(glycerol-b-propylene oxide) (7.48 g, 4.4 mmol, 35 mmol MsO) in NMP (60 mL) was added dropwise and the reaction mixture stirred at 80° C. for 12 h. Water and ethyl acetate were added (200 mL each), an orange precipitate was separated by filtration, and the aqueous layer was extracted with ethyl acetate (2×100 mL). […] The amount of attached chromophore was determined using ^1H NMR, comparing the integration of the signals of the phenol's aromatic protons at 6.99 and 8.12 ppm to trimethylolpropane CH3 at 0.87 ppm, to give an average of about 8 chromophores/polymer.
Hybrane200 D2000 (WO 99/16810) was supplied from DSM Hybrane (Geleen, The Netherlands) with a Mn of about 2000 g/mol as determined by GPC. […] The amount of attached chromophore was determined using ^1H NMR, comparing the integration of the signals of the aromatic protons at 6.59 and 7.85 ppm to the CH3 of the aliphatic chain at 0.86 ppm, to give an average of about 8 chromophores/polymer.

A short description of data set [3]: UV absorption (specific extinction E1/1) of the polymeric filter. Type of data set: physicochemical. The note with it: in CHCl3 at 309 nm. As for the experimental part:
as §1
Potassium tert. butylate (2.3 g) were added to a solution of 4-Dicyanomethylene-2,6-dimethyl-1,4-dihydropyridine-N-ethane-2-ol (4.3 g, 20 mmol) in NMP (50 mL) and the mixture stirred under Argon at rt. for 10 min. […] This product was chromatographed in Ethylacetate/Ethanol=19:1 and the fractions were analyzed by GPC. […]
Hybrane200 D2000 (WO 99/16810) was supplied from DSM Hybrane (Geleen, The Netherlands) with a Mn of about 2000 g/mol as determined by GPC. […]

The nature of data set [4]: Photostability according to G. Berset et al., applying the prepared sunscreen instead of a liquid film. Conditions: Brij O/W sunscreen containing 5% (w/w) chromophore; Berset method. It is filed as physicochemical. On the procedure: The photostability of the conjugates according to the present invention may be measured according to G. Berset et al. International Journal of Cosmetic Science 1996, 18(3), 167-177.
The hyperbranched chromophore II (5.0 g, corresponding to 5% (w/w) UV-filter/sunscreen) was dissolved in Tegosoft TN at 80° C. and added to a mixture of Brij 72 (INCI: Steareth-2) (2.0 g), Brij 721 (INCI: Steareth-21) (2.0 g), Lanette O (cetearyl alcohol) (2.0 g), Estol GMM 3650 (glyceryl monomyristate) (2.0 g), BHT (butylhydroxytoluene) (0.05 g) and Phenonip (phenoxyethanol and methyl-, ethyl-, propyl-, butylparaben) (0.8 g). The mixture was shortly heated to 80° C. in order to melt solid emulsifiers. To the still warm mixture (70-80° C.) a preheated solution (˜80° C.) of glycerin (4.0 g) and EDTA BD (0.1 g) in water (62.95 g) and subsequently 10% aqueous KOH (0.1 g) as well as Sepigel 305 (polyacrylamide and C13-C14 isoparaffin and Laureth-7) (1.0 g) were added slowly under continuous stirring. The resulting emulsion was stirred until a temperature of about 40° C. was reached, homogenized with 24,000 rpm using a ULTRA-TURRAX®, and finally stirred for an additional hour. […] Each in vitro SPF was determined in triplicate to give for chromophore II and Parsol® MCX an average of 6.6 (II) and 6.8, respectively.

Regarding `CCCCC(CC)COC(=O)C=Cc1ccc(OC)cc1` (centres unmarked) [Parsol® MCX, 2-ethylhexyl 4-methoxycinnamate, reference compound], the “in vitro SPF (average)” value in data set [1] was determined as 6.8.

`CCC(COCC(COCC(C)Oc1ccc(-c2nc3ccccc3o2)cc1)OCC(C)OCC(C)Oc1ccc(-c2nc3ccccc3o2)cc1)(COCC(COCC(C)OCC(C)Oc1ccc(-c2nc3ccccc3o2)cc1)OCC(C)Oc1ccc(-c2nc3ccccc3o2)cc1)COCC(COCC(COCC(C)Oc1ccc(-c2nc3ccccc3o2)cc1)OCC(C)Oc1ccc(-c2nc3ccccc3o2)cc1)OCC(COCC(C)Oc1ccc(-c2nc3ccccc3o2)cc1)OCC(C)Oc1ccc(-c2nc3ccccc3o2)cc1` (centres unmarked) [chromophore II]: in data set [2], the “solubility in Tegosoft TN” value is “at least 24 % (w/w)”. The “in vitro SPF (average)” value in data set [1] turned out to be 6.6. Besides, the E1/1/-value in data set [3] was 840. Besides, the “photostability: chromophore recovered” value in data set [4] stood at 96%.
